The record followed here is the domain aggregation screens of Martell et al. (2025).

The data set in a line: soluble fraction after stress (log2 fold change); higher = more stays soluble; pooled small domains, quantitative proteomics. Conditions: stress: pH 4. Put shortly: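 Pooled custom libraries of small protein domains were subjected to pH 4 and measured by high-throughput quantitative proteomics. The log2 fold change in soluble amount per domain is reported, higher values meaning more remained soluble. This is used as a measure of aggregation propensity.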
As for “HMKPFVVVPIDQVRVGMFIQLDLGWMQHPFPVGSFRVASEAQIDTLRSLDLESVRYLPAKSDPAFQQP”, the “soluble fraction (log2)” value is -0.986. In the case of “HMKPGNFILDLLRTYGQKGTSAQNLMSSSRMFNFSENLIRVTLSRLAARGLIENFERGHYRLAE” it was 0.0573.

In the case of “HMKPGTIVTGVVVDIKSDVVVVNAGLKSEGIVPIEQFRNDRGELEVAIGDEVKVALDSLENGFGETVLSRE”, the “soluble fraction (log2)” value was -1.21. Take “HMKPQKRYLFEEVLTFLKHNSEKSFNYKQLGAAMEISNESDRFTLLETLEELKHQGFVVEKEIGKYQAKE”: the “soluble fraction (log2)” value worked out at 0.37. Consider “HMKPRVTVVTLGVDDLERAVRFYAEGLGFPTEGIVGREFEFGAVAFFDMQPGLRLALWPRRSLAHDSGLP”, for which the “soluble fraction (log2)” value is -0.328. In the case of “HMKPSISKIYALWGVLQRSGKIKSQDKAALDAFVRKYTGVDHVKWLDESQARKIIEILKQMIA” it was 0.104. The same measure for “HMKPSKTDEAEYWLMERLEEGPQPAGDLIRIGEEFGYTPKILRDAGERFNMERYKDGLDHWMWKLPN”: 0.349; for “HMKPVTNHTVKFYVDDVLWKTVTVKHGGNVRLADLPMSDGKTFVGWSESVVNVTKDLTVFALFS”: -0.478; for “HMKPVYNKVEIPRGGEYALVLSDGTKVHLNSMSSLRFPVAFTTGKREVELQGEAYFEVSKTGQPFIVNV”: 0.22. For “HMKQGKGIIVVDGKLMPEDFNVATLSLDEVESITVLKGEKAVALYGEKAKEREVLLITTQKG”, the “soluble fraction (log2)” value is -0.316. The same measure for “HMKQKAEVIFVSKTIMEALSKGVRLTPENLKSETELPIDDFYARLKELIDNGSVVESRENGESYLEAGN”: -0.938. For “HMKQLNKRQDDILSLAEKEGYVSVENLAKTFTVSQQTIRRDINYLSDHEFLVRTHGGAFYSSG”, the “soluble fraction (log2)” value was -0.288. Turning to “HMKQNNYATKKELNFFVSRLISLLSYRDFFNPIEKKESMINNIEAIFTRSSLTSQELRTLHGIISNLVE”, the “soluble fraction (log2)” value is -1.27. Turning to “HMKQPNSYGSVHKLPGKRRKPWRVRKTSGWLLDEQSGTVKQQYITIGYYATKQEALIALADYNENP”, the “soluble fraction (log2)” value was -0.434. With “HMKQQFTREQIIELMYKAYKKHKKKLNRVEIKKEKALPSYVTIGRYLNETSIKKIWEIVLSEKE”, the “soluble fraction (log2)” value was -0.388. The same measure for “HMKQVEVESVIGKSEEAANSILTKAGLKVNIGYKEDSSKPTDTVLSQDPAPGEKVDEGTTVTIVVNNYKKP”: -0.127.

As for “HMKRANGTGSVFKLNGKRRNPWVARVTQGFDDKGRQKYVNLGYYKTKREAENELLSYNSNPYDAN”, the “soluble fraction (log2)” value is -0.0271. In the case of “HMKREWKDDDPTVPAGWKVAWTTTSDNRAKIAFMSPDKKIFHSRKSALQHMLAAGTYAQSDIEKMTKGL” it was 0.377; in that of “HMKRFSPPSIEEVDSYIREKGYTVDAERFVNFYESKGWYVGKNKMKNWRAAVATWQKEDNKRN”, -0.0455; in that of “HMKRGDAYASEMIARLKEAHLIVMEGTLYPLLTRLKNDGLLSYRWEESTQGPPRKYYSITPVG”, -0.081. With “HMKRITGHLTEKNKKWYAVINLYDTDGKRKEKWQGLNLDANKGNKREAEHRLRQILDQYNTD”, the “soluble fraction (log2)” value worked out at 0.125. The same measure for “HMKRITKKQLSQQLEQFFSSQPGKKLTLKDIFRALHLDTHPLKMLAMDIMEEMAWDDFITKKGENAYQLNT”: -0.725; for “HMKRKAIDQSWQPDKEAIEILSKAGVNEEFIKEEIPEFILYWSEKGEESDTWNSKFIAQVRRQWAKTQH”: 0.248; for “HMKRQATLQIGSKRFGMDDLYFKFTVPFEDSEKLGTATIEAYNLSPATRNSIKKGMPIILNAGYEGDI”: -0.103.

As for “HMKRTMVEAAMVAKLFNLTVRRIQQLTQDGVLTTELVDKKRRYDLLLTVQKYIAYLQEKVAK”, the “soluble fraction (log2)” value is at least 0.43. Turning to “HMKRVVFFNGISWYHRTKELLDDMTTKYGKKGGFATPEEAEKSYWEYEERYKDRQRELQVAYLKN”, the “soluble fraction (log2)” value is -0.913. In the case of “HMKSDEGEIKKIVEEIISKNASVVEDYKKGKEVALQFLVGQGMKATKGSANPELLKKIILENI” it was -0.105. Turning to “HMKSDVVFDITDGTVKAMLKFNRSDVTILNNDGKNYYLFTANGEFTFKYQDGSGEYYEKTVYVDWLEDE”, the “soluble fraction (log2)” value was -1.56. In the case of “HMKSFIWKQYTVQITKKNVKNTNVRIKRDNPHVILMSIPYSATYKAGLLALETPHIRHWLDNYERKLKQ” it was 0.0309; in that of “HMKSIEVPNLINMTLRKAKIELIDNEFNLDTVIYEYNPNIREGRVSLQIPESGTILKSGSNISIHISKGIP”, -0.32. The same measure for “HMKSIPKIKWNSTLENIKNFEYQDNFFESKEMYDLLVSFYKYGFVIIKNIPTNNNFIVKFANSIGS”: 0.121; for “HMKSISMANGNVQLRINGVLASSLEVAALSPEDIKRVEYHDNPGLRYGEGIDIVLDYITIKRT”: -1.16; for “HMKSISMSKLRHLLQLYVQGRSKKLISEQTGIARNTLKKYIKEFSEAGLSLEALLALSDKELEDLFVK”: 0.282. For the sequence “HMKSLPQKLLAYLESQGLTRDEAGEFVKQGLKITSNDVDQIQLLLANTEVIDIKLQEFIAQK”, the “soluble fraction (log2)” value is -0.549. The same measure for “HMKSLVDLEISIVKKDMNYFVLPKINGEPLLMERISASEYKDFQLGKLSKEDIFQKHYPDYSEENIKNGRG”: 0.19. In the case of “HMKSSISKNWNPSKDAIEILTRAGIDQEFLENLIPEFVIYWIERSDVLISYNSKFIEHARLKWAQHTAEIQ” it was -0.106; in that of “HMKSTPMYATAIVNIRSKAGTDSEILGKLNPSEEISVISSENGWSKVSYNGKEAYISSNYLSNAKP”, 0.22. The same measure for “HMKSVFQPIYEDLLSRIQDGRLLPGMPLPSENALAVQYGTSRPTIRRAIGLLVEKSLVIRQPGIGSIVAS”: -0.493. As to “HMKTALQENVRAYRLERKWTQQALAEALEVSVGAVSKWESGVSRPELETLMRLAELFGVSTDALLGF”, the “soluble fraction (log2)” value is -1.09.

Turning to “HMKTAWDELNEVIEAYRGQESALIEVLHKAQEIMGYLPRDVQEAIAEGLHVPLNKVYGVVSFYHHFSV”, the “soluble fraction (log2)” value was -0.204. For the sequence “HMKTERTVRVQDQHLHYTLEEKPIKNVNLRIRPDGSVYVSAPFGTSRTLIDDFVASKSKQILAIQQAQSAM”, the “soluble fraction (log2)” value is 0.22. For “HMKTGIGIVEANGGLRLRSQASTSSDVLSTAHNGDNVVVIRQVGNWYLVNYNLKIGYMHSDYITFKE”, the “soluble fraction (log2)” value was -1.3. With “HMKTGNIIAVSLVWKGKYYMIRMFFPSAARPSRADVQTEIEKVYPGSKLSSFSVSDYEPGQPLLQV”, the “soluble fraction (log2)” value is -0.146. The same measure for “HMKTGTTGLIGEIGVVKKALTPEGKVFVHGELWRAVSKTASPEGTLVQVIKINNLVLEVEKV”: 0.0324.

For the sequence “HMKTILEKDQRLAKYISYLIKRKRLSPEQVIEHLKTDDHGYEKYPKSINTIYAAIDKGLIPSVTRQDM”, the “soluble fraction (log2)” value is at least 0.43. The same measure for “HMKTKMTPELTTVIEAQIQKEWSPEQISGWLKKTHPVSVSHQRIYQHIQADRQQGGTLHQHLRQAK”: -0.2; for “HMKTKTFSPGEIVKIQTRDKSWQGTILESHDPEIILLKLTTGYNIGIRENEIINAKVIEKSKKDVKDAE”: 0.176; for “HMKTKTIMSTGAREDLVKMINEYYYSKNYIITEDNRIYNTKTEKFMDDLSVKFYRGRWKVIRN”: 0.0289. “HMKTLDATQRLKLNGEGIIVFNFGKYVDQPVVEIFKKERGYFAWMMSKDFSQQVKNIITKIHNEEILGK”: the “soluble fraction (log2)” value was -0.344. For the sequence “HMKTLKHYFASIAHEFGREEAELMLLSVFKTPFEQRLMLFMKDPALTEAQVQQLDNLVRQRKQGVPLPYIL”, the “soluble fraction (log2)” value is -0.287.
